Residue numbers refer to the chain shown, from its start. Names may count otherwise. Values belong to the binder of their own block, whether it stands above or below them.
Experiments:
[1] = target: T1, intact Her2 expressed at the cell surface (human, UniProt P04626 23-1255); experiment: flow cytometry on SKOV3 cells, pH 6.8 vs pH 7.3
T1 construct: whole, on cells; also called Her2 on SKOV3 cells; Her2 on JIMT-1 cells
Procedure: (§1) The cells were washed twice in 200 μL binding buffer, followed by addition of 120 μL 1.0% propidium iodide and samples were then transferred to Multiscreen 96-well plates (60 μm Nylon Mesh, Millipore, Etobicoke, ON) and filtered by centrifugation. The filtrate samples were collected from the Multiscreen receiver plate and transferred to a new V-bottom polypropylene plate at 4° C. Flow cytometric analysis was performed on a BD LSR-Fortessa instrument (BD Biosciences, San Jose, Calif.). […] Median fluorescence intensity (MFI) was reported by analyzing 3000 alive cells per sample with the gating strategy: all cells/singlets/alive cells (PI negative) using BD FACSDiva software (BD Biosciences).
(§2) The designed variants were then reformatted into human IgG1/k FSAs and re-tested on the high-density Her2 cells.

[2] = target: T1, intact Her2 expressed at the cell …; experiment: flow cytometry on SKOV3 cells, pH 6.0 vs pH 7.3
Procedure: as §1, §2

[3] = target: T1, intact Her2 expressed at the cell …; experiment: flow cytometry (FACS) on SKOV3 cells, full-size antibody, pH 6.4
Procedure: (§3) Cells in T-75 flasks were washed twice with D-PBS and then dissociated using Cell Dissociation buffer (Sigma, C5914) at 37° C. […] The cells were then washed twice by centrifugation at 233×g, removal of supernatant by aspiration and resuspending the cells in 200 μL binding buffer at 4° C. Detection reagent, either anti-human Fab or Fc AlexaFluor488-(Fab′)² (Jackson Immunochemicals, West Groove, Pa.), was then added at a final concentration of 10 μg/mL and samples were incubated at 4° C., 1 h. The cells were washed twice in 200 μL binding buffer, followed by addition of 120 μL 1.0% propidium iodide and samples were then transferred to Multiscreen 96-well plates (60 μm Nylon Mesh, Millipore, Etobicoke, ON) and filtered by centrifugation. The filtrate samples were collected from the Multiscreen receiver plate and transferred to a new V-bottom polypropylene plate at 4° C. Flow cytometric analysis was performed on a BD LSR-Fortessa instrument (BD Biosciences, San Jose, Calif.). […] Median fluorescence intensity (MFI) was reported by analyzing 3000 alive cells per sample with the gating strategy: all cells/singlets/alive cells (PI negative) using BD FACSDiva software (BD Biosciences).
as §2

[4] = target: T1, intact Her2 expressed at the cell …; experiment: flow cytometry on SKOV3 cells, apparent KD, pH 6.4; FSA, SKOV3 cells, pH 6.4
Procedure: as §1, §2

[5] = target: T1, intact Her2 expressed at the cell …; experiment: flow cytometry on SKOV3 cells, apparent KD, pH 6.0; FSA, SKOV3 cells, pH 6.0
Procedure: as §1, §2

[6] = target: T1, intact Her2 expressed at the cell …; experiment: flow cytometry on SKOV3 cells, apparent KD, pH 6.8; FSA, SKOV3 cells, pH 6.8
Procedure: as §1, §2

[7] = target: T1, intact Her2 expressed at the cell …; experiment: flow cytometry on SKOV3 cells, apparent KD, pH 7.3 (Bmax not reached)
Procedure: as §1, §2

[8] = target: T1, intact Her2 expressed at the cell …; experiment: flow cytometry (FACS) on SKOV3 cells, full-size antibody, pH 5.2
Procedure: as §3, §2

[9] = target: T1, intact Her2 expressed at the cell …; experiment: flow cytometry on SKOV3 cells, apparent KD, pH 5.2; FSA, SKOV3 cells, pH 5.2
Procedure: as §1, §2

[10] = target: T1, intact Her2 expressed at the cell …; experiment: flow cytometry on SKOV3 cells, apparent KD, pH 5.6; FSA, SKOV3 cells, pH 5.6
Procedure: as §1, §2

[11] = target: T1, intact Her2 expressed at the cell …; experiment: flow cytometry (FACS) on SKOV3 cells, full-size antibody, pH 6.0
Procedure: as §3, §2

[12] = target: T2, Recombinant human Her2 extracellular domain (human, UniProt P04626 23-652); experiment: SPR, Fab over immobilized Her2 ectodomain, pH 5.0, 25 C
T2 construct: extracellular domain; also called Her2 ectodomain; recombinant Her2 ectodomain
Procedure: (§4) Fab-Her2 interactions were analyzed using a Biacore™ T200 (GE Healthcare, Missisauga, ON) surface plasmon resonance instrument. […] Recombinant human Her2 extracellular domain (ThermoFisher Scientific, Burlington, ON) was immobilized onto a CM-5 sensorchip along with a mock-activated blank control surface for referencing. Her2 was diluted to 10 μg/mL in 10 mM NaOAc immobilization buffer pH 4.5 (Biacore) and immobilized to approximately 200 RUs using the Biacore control software Immobilization Wizard with standard NHS/EDC amine coupling. […] Fab samples were injected at 100 4/min with a contact time of 90 s and a 1200-s dissociation using either pH 5.0 or 7.4 running buffer. Sensorgrams were double referenced to the mock-activated blank sensor surface and analyzed for kinetic determination using a 1:1 binding model in BiaEvaluation software v3.1 (GE Healthcare).

[13] = target: T2, Recombinant human Her2 extracellular …; experiment: SPR, Fab over immobilized Her2 ectodomain, pH 7.4, 25 C
Procedure: as §4

[14] = target: T1, intact Her2 expressed at the cell …; experiment: flow cytometry on SKOV3 cells, apparent KD, pH 7.3
[15] = target: T1, intact Her2 expressed at the cell …; experiment: flow cytometry on SKOV3 cells, apparent KD, pH 5.2 (Bmax not reached)
[16] = target: T1, intact Her2 expressed at the cell …; experiment: flow cytometry on JIMT-1 cells (low Her2 density), full-size antibody, pH 7.3
[17] = target: T1, intact Her2 expressed at the cell …; experiment: flow cytometry on JIMT-1 cells (low Her2 density), full-size antibody, pH 6.0
[18] = target: T1, intact Her2 expressed at the cell …; experiment: flow cytometry on SKOV3 cells, apparent KD, pH 6.4
[19] = target: T1, intact Her2 expressed at the cell …; experiment: flow cytometry on SKOV3 cells, apparent KD, pH 7.3; remark: listed apart in the source
[20] = target: T1, intact Her2 expressed at the cell …; experiment: flow cytometry on SKOV3 cells, apparent KD, pH 5.2
[21] = target: T1, intact Her2 expressed at the cell …; experiment: flow cytometry on SKOV3 cells, apparent KD, pH 5.6
[22] = target: T1, intact Her2 expressed at the cell …; experiment: flow cytometry on SKOV3 cells, apparent KD, pH 6.8
[23] = target: T1, intact Her2 expressed at the cell …; experiment: flow cytometry (FACS) on SKOV3 cells, full-size antibody, pH 7.3
[24] = target: T1, intact Her2 expressed at the cell …; experiment: flow cytometry on SKOV3 cells, apparent KD, pH 6.0
[25] = target: T2, Recombinant human Her2 extracellular …; experiment: SPR, acidic pH 5.0 vs physiological pH 7.4, relative to the parent bH1
Procedure: as §4

[26] = target: T2, Recombinant human Her2 extracellular …; experiment: SPR, pH 5.0 vs pH 7.4
Procedure: as §4

[27] = target: T1, intact Her2 expressed at the cell …; experiment: flow cytometry on SKOV3 cells, pH 5.2, against bH1-P5 and bH1-P5P7 Fabs
Procedure: (§5) The cells were then washed twice by centrifugation at 233×g, removal of supernatant by aspiration and resuspending the cells in 200 μL binding buffer at 4° C. Detection reagent, either anti-human Fab or Fc AlexaFluor488-(Fab′)² (Jackson Immunochemicals, West Groove, Pa.), was then added at a final concentration of 10 μg/mL and samples were incubated at 4° C., 1 h. The cells were washed twice in 200 μL binding buffer, followed by addition of 120 μL 1.0% propidium iodide and samples were then transferred to Multiscreen 96-well plates (60 μm Nylon Mesh, Millipore, Etobicoke, ON) and filtered by centrifugation. The filtrate samples were collected from the Multiscreen receiver plate and transferred to a new V-bottom polypropylene plate at 4° C. Flow cytometric analysis was performed on a BD LSR-Fortessa instrument (BD Biosciences, San Jose, Calif.). […] Median fluorescence intensity (MFI) was reported by analyzing 3000 alive cells per sample with the gating strategy: all cells/singlets/alive cells (PI negative) using BD FACSDiva software (BD Biosciences).

[28] = target: T1, intact Her2 expressed at the cell …; experiment: flow cytometry on SKOV3 cells, apparent KD, pH 5.2 (Bmax not reached); Fab, SKOV3 cells, pH 5.2 (acidic); approximate, Bmax not reached
Procedure: as §5

[29] = target: T1, intact Her2 expressed at the cell …; experiment: cell-based or functional assay

Kd [12]: 17 nM | Kd [13]: 5.7 nM
B2: bH1-P7 (L-R30aH) Fab (Fab, V domains shown)
VH: not shown
VL: DIQMTQSPSSLSASVGDRVTITCRASQDIPHSISGYVAWYQQKPGKAPKLLIYWGSYLYSGVPSRFSGSGSGTDFTLTISSLQPEDFATYYCQQHYTTPPTFGQGTKVEIKR

Kd [12]: 9.9 nM | Kd [13]: 3.4 nM
B3: bH1-P8 (L-S30bH) Fab (Fab, V domains shown)
VH: not shown
VL: B2 VL with H31R, S32H

Kd [12]: 13 nM | Kd [14]: 21.3 nM | Kd [15]: ~41 nM | Kd [13]: 3 nM
B4: parental bH1-Fab (Fab, V domains shown)
VH: not shown
VL: B2 VL with H31R

EC50 (read off the curve) [16]: ~2 nM | EC50 (read off the curve) [17]: ~2 nM | Kd [18]: 2.9 nM | Kd [19]: 4.1 nM | Kd [20]: 2.6 nM | Kd [21]: 1.5 nM | EC50 (read off the curve) [3]: ~3 nM | Kd [22]: 2 nM | EC50 (read off the curve) [8]: ~3 nM | EC50 (read off the curve) [23]: ~4 nM | Kd [24]: 2.9 nM | EC50 (read off the curve) [11]: ~3 nM
B5: parental bH1-FSA (full-size human IgG1/k antibody) (antibody, V domains shown)
VH: not shown
VL: B2 VL with H31R

Kd [13]: 10 nM | koff [13]: 0.0048 s⁻¹ | kon [13]: 480000 M⁻¹ s⁻¹
B6: bH1-P6 (H-Y100aH) Fab (Fab, V domains shown)
VH: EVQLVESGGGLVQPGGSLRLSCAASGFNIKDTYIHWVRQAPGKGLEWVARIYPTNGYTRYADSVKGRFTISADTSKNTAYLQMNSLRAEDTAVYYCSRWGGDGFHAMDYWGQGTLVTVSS
VL: B2 VL with H31R

More lines, now with the values behind:

B1: bH1-P5P7-FSA (antibody, human IgG1, kappa, V domains shown)
VH: not shown
VL: B2 VL
notes: also called bH1-P5P7 full-size antibody
fold pH-selectivity, pH 6.8 over pH 7.3 [1]: ~25 fold | fold pH-selectivity, pH 6.0 over pH 7.3 [2]: > 10 fold | EC50 (read off the curve) [3]: ~20 nM | Kd [4]: 16 nM | Kd [5]: 9.7 nM | Kd [6]: 29.7 nM | Kd [7]: ~716 nM | EC50 (read off the curve) [8]: ~8 nM | Kd [9]: 8.4 nM | Kd [10]: 9.5 nM | EC50 (read off the curve) [11]: ~10 nM

B7: bH1-P5P8 (H-R58H,L-S30bH) Fab (Fab, V domains shown)
VH: not shown
VL: B2 VL with H31R, S32H
notes: also called bH1-P5P8-Fab; bH1-P5P8 Fab
ΔΔΔGbinding [25]: -1.91 kcal/mol | Kd [12]: 50 nM | koff [12]: 0.0037 s⁻¹ | kon [12]: 90000 M⁻¹ s⁻¹ | fold stronger binding at acidic pH than at physiological pH [26]: ~6 fold | fold stronger affinity than bH1-P5 and bH1-P5P7 [27]: ~2 fold | Kd [28]: ~93 nM | Kd [13]: 290 nM | koff [13]: 0.011 s⁻¹ | kon [13]: 40000 M⁻¹ s⁻¹

B8: bH1-P5P8-FSA (antibody, human IgG1, kappa, V domains shown)
VH: not shown
VL: B2 VL with H31R, S32H
notes: also called bH1-P5P8 full-size antibody
EC50 (read off the curve) [3]: ~20 nM | Kd [4]: 15.1 nM | Kd [6]: 21.7 nM | Kd [7]: ~290 nM | EC50 (read off the curve) [8]: ~10 nM | Kd [9]: 12.3 nM | EC50 (read off the curve) [11]: ~10 nM | internalization of FITC conjugated antibody into BT474 cells, pH 6.4 [29]: 2 fold over negative control

B9: bH1-P5P7 (H-R58H,L-R30aH) Fab (Fab, V domains shown)
VH: not shown
VL: B2 VL
notes: also called bH1-P5P7-Fab
ΔΔΔGbinding [25]: -1.93 kcal/mol | Kd [12]: 90 nM | koff [12]: 0.0057 s⁻¹ | kon [12]: 70000 M⁻¹ s⁻¹ | fold stronger binding at acidic pH than at physiological pH [26]: ~6 fold | Kd [28]: ~178 nM | Kd [13]: 530 nM | koff [13]: 0.021 s⁻¹ | kon [13]: 40000 M⁻¹ s⁻¹

From US20220162337A1 (NATIONAL RESEARCH COUNCIL OF CANADA, published 2022)
